According to patent US20040248178A1 (GENERAL HOSPITAL, published 2004):

Target: the molecule itself
Assay: transmission electron microscopy after rotary shadowing (self-association)

B1: Recombinant mouse β-netrin lacking the C domain, with His tag (rβ-NΔC+His) (ligand)
chain: GLNGVAGANSRCEKACNPRMGNLALGRKLRADTMCGQNATELFCFYSENADLTCRQPKCDKCNAAHSHLAHPPSAMADSSFRFPRTWWQSAEDVHREKIQLDLEAEFYFTHLIMVFKSPRPAAMVLDRSQDFGKTWKPYKYFATNCSATFGLEDDVVKKGAICTSRYSNPFPCTGGEVIFRALSPPYDIENPYSAKVQEQLKITNLRVRLLKRQSCPCQINDLNAKPHHFMHYAVYDFIVKGSCFCNGHADQCLPVEGFRPIKAPGAFHVVHGRCMCKHNTAGSHCQHCAPLYNDRPWEAADGRTGAPNECRTCKCNGHADTCHFDVNVWEASGNRSGGVCNNCQHNTEGQHCQRCKPGFYRDLRRPFSAPDACKACSCHPVGSAILPFSSVTFCDPSNGDCPCKPGVAGPHCDRCMVGYWGFGDYGCRPCDCAGSCDPLTGDCISSNADVDWY
notes: also called rβ-NAC+His; rβ-netrin ΔC; not shown: six histidine tag followed by a thrombin cleavage site
  binding result: no binding
